“And” between values parts separate entries of the source, which are not always exact repeats. Equal values may be shown once.
Tests used:
TRBV9 + TRAV26 antigen = assay: BLI (OctetRed 96), antigen immobilized on AR2G sensor, antibody 126-2 nM, 1:1 model
TRBV9 + TRAV38 antigen = assay: as above
[1] = target: T cell receptor with a beta-chain of the TRBV9 family on human peripheral blood T lymphocytes (human); assay: flow cytometry of human blood mononuclear cells, FITC-labelled antibody at 27 ng per test (lower plot), co-stained with anti-CD3-eFluor 405 [lower plot]
[2] = target: T cell receptor with a beta-chain of the TRBV9 family on human peripheral blood T lymphocytes (human); assay: flow cytometry of human blood mononuclear cells, FITC-labelled antibody at 270 ng per test (upper plot), co-stained with anti-CD3-eFluor 405 [upper plot]
[3] = target: T cell receptor with a beta-chain of the TRBV9 family on human peripheral blood T lymphocytes (human); assay: cell sorting with the FITC-labelled antibody, then sequencing of TCR beta-chains
[4] = target: T cell receptor with a beta-chain of the TRBV9 family on human peripheral blood T lymphocytes (human); assay: flow cytometry, FITC-labelled antibody at 5 ng/ul and 0.5 ng/ul on human mononuclear blood cells

Row | Binder | Kd (TRBV9 + TRAV26 antigen) | koff (TRBV9 + TRAV26 antigen) | kon (TRBV9 + TRAV26 antigen) | Kd (TRBV9 + TRAV38 antigen) | koff (TRBV9 + TRAV38 antigen) | kon (TRBV9 + TRAV38 antigen) | % of cells in the CD3+TRBV9+ gate (small rectangle) [1] | % of cells in the CD3+TRBV9+ gate (small rectangle) [2] | percent of TCR beta-chain sequences of the sorted CD3+TRBV9+ fraction that belong to the TRBV9 family [3] | percent of the CD3-positive fraction stained [4]
1 | anti-TRBV9-1 monoclonal antibody (antibody, human IgG1, kappa, V domains shown) VH: QIQLVQSGPELREPGESVKLSCKASGYTFTDYLVHWVKQAPGKGLKWMGWINTYTGTPTYADDFEGRFVFSLEASASTANLQISNLKNEDTATYFCARSWRRGLRGLGFDYWGQGVFVTVSS VL: DVQMTQSPYNLAASPGESVSINCKASKSINKYLAWYQQKPGKPNKLLIYDGSTLQSGIPSRFSGSGSGTDFTLTIRGLEPEDFGLYYCQQHNEYPPTFGAGTKLELKR | 0.22 nM and 0.204 nM and 0.278 nM | 0.000114 s⁻¹ and 0.000113 s⁻¹ and 0.000183 s⁻¹ | 559000 M⁻¹ s⁻¹ and 515000 M⁻¹ s⁻¹ and 658000 M⁻¹ s⁻¹ | 0.365 nM and 0.529 nM and 0.414 nM | 0.000205 s⁻¹ and 0.000196 s⁻¹ and 0.000183 s⁻¹ | 562000 M⁻¹ s⁻¹ and 371000 M⁻¹ s⁻¹ and 441000 M⁻¹ s⁻¹ | 3% | 1.6% | – | –
2 | anti-TRBV9-2 monoclonal antibody (antibody, human IgG1, kappa, V domains shown) VH: QIQLVQSGPELREPGESVKLSCKASGYTFTDYLVHWVKQAPGKGLKWMGWINTYTGTPTYADDFEGRFVFSLEASASTANLQISNLKNEDTATYFCARSWRRGLRGIGFDYWGQGVFVTVSS VL: DVQMTQSPYNLAASPGESVSINCKASKSINKYLAWYQQKPGKPNKLLIYDGSTLQSGIPSRFSGSGSGTDFTLTIRGLEPEDFGLYYCQQHNEYPPTFGAGTKLELKR | – | – | 447000 M⁻¹ s⁻¹ and 381000 M⁻¹ s⁻¹ | < 0.001 nM | < 1e-07 s⁻¹ | 397000 M⁻¹ s⁻¹ and 289000 M⁻¹ s⁻¹ | – | – | 90% | 2.9%

Other lines, results leading:

Row | Kd (TRBV9 + TRAV26 antigen) | koff (TRBV9 + TRAV26 antigen) | kon (TRBV9 + TRAV26 antigen) | Kd (TRBV9 + TRAV38 antigen) | koff (TRBV9 + TRAV38 antigen) | kon (TRBV9 + TRAV38 antigen) | % of cells in the CD3+TRBV9+ gate (small rectangle) [1] | % of cells in the CD3+TRBV9+ gate (small rectangle) [2] | percent of TCR beta-chain sequences of the sorted CD3+TRBV9+ fraction that belong to the TRBV9 family [3] | percent of the CD3-positive fraction stained [4] | Binder
3 | < 0.001 nM | < 1e-07 s⁻¹ | 865000 M⁻¹ s⁻¹ and 579000 M⁻¹ s⁻¹ | < 0.001 nM | < 1e-07 s⁻¹ | 713000 M⁻¹ s⁻¹ and 476000 M⁻¹ s⁻¹ | 2.4% | 2.9% | – | – | anti-TRBV9-4 monoclonal antibody (antibody, human IgG1, kappa, V domains shown) VH: QIQLVQSGPELREPGESVKLSCKASGYTFTDYLVHWVKQAPGKGLKWMGWINTYTGTPTYADDFEGRFVFSLEASASTANLQISNLKNEDTATYFCARSWRRGIRGIGFDYWGQGVFVTVSS VL: DVQMTQSPYNLAASPGESVSINCKASKSINKYLAWYQQKPGKPNKLLIYDGSTLQSGIPSRFSGSGSGTDFTLTIRGLEPEDFGLYYCQQHNEYPPTFGAGTKLELKR
4 | 0.319 nM and 0.582 nM | 9.16e-05 s⁻¹ and 9.8e-05 s⁻¹ | 287000 M⁻¹ s⁻¹ and 168000 M⁻¹ s⁻¹ | 0.311 nM and 0.4 nM | 9.61e-05 s⁻¹ and 9.16e-05 s⁻¹ | 309000 M⁻¹ s⁻¹ and 229000 M⁻¹ s⁻¹ | 2.6% | 3% | – | – | anti-TRBV9-3 monoclonal antibody (antibody, human IgG1, kappa, V domains shown) VH: QIQLVQSGPELREPGESVKLSCKASGYTFTDYLVHWVKQAPGKGLKWMGWINTYTGTPTYADDFEGRFVFSLEASASTANLQISNLKNEDTATYFCARSWRRGIRGLGFDYWGQGVFVTVSS VL: DVQMTQSPYNLAASPGESVSINCKASKSINKYLAWYQQKPGKPNKLLIYDGSTLQSGIPSRFSGSGSGTDFTLTIRGLEPEDFGLYYCQQHNEYPPTFGAGTKLELKR

Source: US20200332003A1
